The values below are quoted from earlier work in paper PMC6005658.

The term Ki denotes the dissociation constant of the complex between target and ligand, obtained from inhibition or displacement.

The series deals with arodyn (1). In words: radioligand binding.

Sequence of μ opioid receptor (P33535 whole entry): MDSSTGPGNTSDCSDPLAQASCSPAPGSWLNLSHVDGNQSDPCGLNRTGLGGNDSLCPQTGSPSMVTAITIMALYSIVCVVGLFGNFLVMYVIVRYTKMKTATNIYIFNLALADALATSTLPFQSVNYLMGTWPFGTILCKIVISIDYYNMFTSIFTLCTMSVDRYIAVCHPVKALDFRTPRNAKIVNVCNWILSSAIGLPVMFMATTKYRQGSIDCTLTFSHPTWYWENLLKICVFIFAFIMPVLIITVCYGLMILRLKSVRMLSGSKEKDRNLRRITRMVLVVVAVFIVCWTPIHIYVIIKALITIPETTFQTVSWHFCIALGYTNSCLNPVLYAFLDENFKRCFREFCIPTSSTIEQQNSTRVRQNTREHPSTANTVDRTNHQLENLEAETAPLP
Sequence of κ opioid receptor (P34975 whole entry): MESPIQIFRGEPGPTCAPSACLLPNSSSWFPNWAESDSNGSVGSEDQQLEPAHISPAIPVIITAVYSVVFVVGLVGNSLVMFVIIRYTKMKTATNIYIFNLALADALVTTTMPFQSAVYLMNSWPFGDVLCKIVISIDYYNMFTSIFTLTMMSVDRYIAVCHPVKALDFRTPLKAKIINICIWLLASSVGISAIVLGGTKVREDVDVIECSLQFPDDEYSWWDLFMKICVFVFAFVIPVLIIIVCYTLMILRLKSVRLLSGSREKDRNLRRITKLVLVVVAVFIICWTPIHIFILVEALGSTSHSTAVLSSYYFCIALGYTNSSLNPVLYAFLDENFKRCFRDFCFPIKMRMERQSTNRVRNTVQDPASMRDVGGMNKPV

In the case of μ opioid receptor (from UniProt P33535), the Ki was 1.75 µM.

Take κ opioid receptor (from UniProt P34975): the Ki was 0.01 µM.
